Measured values reported in patent publication US20210147523A1 (TEIJIN PHARMA, published 2021).

What was measured:
Experiment in all cases: flow cytometry, FLAG-insertion mutant
[1] = molecular target: T1, Mutant 4 of human SPNS2 (FLAG tag inserted in extracellular loop 11) (human, UniProt Q8IVW8 1-549)
T1 construct: on HEK293 cells; also called extracellular loop 11 mutant
T1 sequence: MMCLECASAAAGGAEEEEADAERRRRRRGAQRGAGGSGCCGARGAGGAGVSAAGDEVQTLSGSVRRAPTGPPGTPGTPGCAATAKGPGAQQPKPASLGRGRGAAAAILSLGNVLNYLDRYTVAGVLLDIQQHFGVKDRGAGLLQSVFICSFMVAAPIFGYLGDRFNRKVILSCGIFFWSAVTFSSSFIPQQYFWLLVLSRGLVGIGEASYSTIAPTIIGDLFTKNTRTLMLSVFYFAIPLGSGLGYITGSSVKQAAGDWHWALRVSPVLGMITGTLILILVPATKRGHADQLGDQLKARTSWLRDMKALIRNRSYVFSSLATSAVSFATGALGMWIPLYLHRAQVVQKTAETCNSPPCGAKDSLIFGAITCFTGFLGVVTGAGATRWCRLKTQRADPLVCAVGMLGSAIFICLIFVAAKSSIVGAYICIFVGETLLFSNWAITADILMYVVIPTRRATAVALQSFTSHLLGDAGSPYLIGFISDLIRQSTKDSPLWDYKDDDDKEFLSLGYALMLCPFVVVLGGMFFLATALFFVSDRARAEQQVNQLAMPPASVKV
Method: (§1) After the lipofection, the HEK 293 cells cultivated overnight were recovered from the culture dishes, and reacted with a cell staining buffer (BioLegend, 420201) containing an anti-FLAG antibody (Sigma-Aldrich, F1804) and an anti-SPNS2 antibody each in a volume of 20 μg/mL for 30 minutes at room temperature. After washing with a cell staining buffer one time, the anti-FLAG antibody was detected with an anti-mouse IgG-Alexa 647 conjugate antibody, and the anti-SPNS2 antibody was detected with an anti-rat IgG-FITC conjugate antibody with flow cytometer BD LSR Fortessa (Becton Dickinson). The binding ability to each mutant was evaluated with the ratio of the FITC-positive cell rate to the Alexa 647-positive cell rate. In Table 7, symbol (+) indicates a ratio of less than 0.1, symbol (±) indicates a ratio of 0.1 or more and less than 0.5, and symbol (−) indicate a ratio of 0.5 or more.

[2] = molecular target: T2, Mutant 1 of human SPNS2 (FLAG tag inserted in extracellular loop 1) (human, UniProt Q8IVW8 1-549)
T2 construct: on HEK293 cells; also called extracellular loop 1 mutant
T2 sequence: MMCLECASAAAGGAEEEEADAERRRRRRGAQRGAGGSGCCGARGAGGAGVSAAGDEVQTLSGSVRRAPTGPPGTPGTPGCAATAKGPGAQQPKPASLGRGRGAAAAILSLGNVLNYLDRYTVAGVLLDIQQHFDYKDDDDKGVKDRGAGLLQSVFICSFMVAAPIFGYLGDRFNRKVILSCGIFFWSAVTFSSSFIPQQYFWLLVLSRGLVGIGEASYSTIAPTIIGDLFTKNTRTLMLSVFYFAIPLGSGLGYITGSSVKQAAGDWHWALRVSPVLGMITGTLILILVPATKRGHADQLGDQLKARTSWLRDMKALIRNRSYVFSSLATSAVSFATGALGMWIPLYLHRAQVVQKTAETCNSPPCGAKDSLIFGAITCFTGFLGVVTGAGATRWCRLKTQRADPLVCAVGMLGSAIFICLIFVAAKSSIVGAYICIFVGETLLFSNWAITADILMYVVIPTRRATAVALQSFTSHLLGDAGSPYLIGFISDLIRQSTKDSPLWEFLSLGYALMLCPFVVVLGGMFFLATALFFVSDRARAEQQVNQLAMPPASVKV
Method: as §1

[3] = molecular target: T3, Mutant 3 of human SPNS2 (FLAG tag inserted in extracellular loop 7) (human, UniProt Q8IVW8 1-549)
T3 construct: on HEK293 cells; also called extracellular loop 7 mutant
T3 sequence: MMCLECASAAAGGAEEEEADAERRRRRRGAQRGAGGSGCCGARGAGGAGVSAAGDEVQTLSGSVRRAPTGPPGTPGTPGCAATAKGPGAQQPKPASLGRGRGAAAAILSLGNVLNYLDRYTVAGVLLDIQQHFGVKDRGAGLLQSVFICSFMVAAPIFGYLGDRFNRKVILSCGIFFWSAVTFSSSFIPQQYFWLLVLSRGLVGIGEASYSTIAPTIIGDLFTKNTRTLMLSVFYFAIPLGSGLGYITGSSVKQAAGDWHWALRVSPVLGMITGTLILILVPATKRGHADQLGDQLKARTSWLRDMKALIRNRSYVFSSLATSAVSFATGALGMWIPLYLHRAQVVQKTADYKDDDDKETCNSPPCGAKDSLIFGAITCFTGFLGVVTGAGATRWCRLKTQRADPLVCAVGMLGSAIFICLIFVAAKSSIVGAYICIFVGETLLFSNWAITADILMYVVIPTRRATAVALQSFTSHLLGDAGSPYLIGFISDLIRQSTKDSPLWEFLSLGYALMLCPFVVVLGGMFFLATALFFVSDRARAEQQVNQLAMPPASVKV
Method: as §1

[4] = molecular target: T4, Mutant 2 of human SPNS2 (FLAG tag inserted in extracellular loop 5) (human, UniProt Q8IVW8 1-549)
T4 construct: on HEK293 cells; also called extracellular loop 5 mutant
T4 sequence: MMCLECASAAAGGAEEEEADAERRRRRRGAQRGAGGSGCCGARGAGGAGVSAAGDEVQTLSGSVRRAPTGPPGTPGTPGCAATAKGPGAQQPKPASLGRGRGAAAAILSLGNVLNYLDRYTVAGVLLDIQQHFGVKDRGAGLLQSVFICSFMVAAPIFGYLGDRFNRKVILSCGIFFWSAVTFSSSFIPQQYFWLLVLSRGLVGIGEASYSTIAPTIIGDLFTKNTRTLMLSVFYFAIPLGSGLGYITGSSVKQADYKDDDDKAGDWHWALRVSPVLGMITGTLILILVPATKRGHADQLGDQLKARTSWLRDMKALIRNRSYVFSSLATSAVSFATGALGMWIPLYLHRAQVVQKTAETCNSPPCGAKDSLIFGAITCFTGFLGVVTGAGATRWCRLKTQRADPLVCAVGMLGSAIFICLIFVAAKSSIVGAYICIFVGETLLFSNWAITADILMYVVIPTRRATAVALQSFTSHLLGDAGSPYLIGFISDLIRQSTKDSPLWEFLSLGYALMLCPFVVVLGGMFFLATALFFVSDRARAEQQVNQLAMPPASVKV
Method: as §1

Row | Binder | FITC+/Alexa 647+ cell rate ratio [1] | FITC+/Alexa 647+ cell rate ratio [2] | FITC+/Alexa 647+ cell rate ratio [3] | FITC+/Alexa 647+ cell rate ratio [4]
1 | 80-1104A (antibody, IgG2b, V domains shown) VH: EVQLVETGGGLVQPGSSLKLSCSTSGFTFSETWMSWVRQAPGKGLEWVGLIKDKNSNYEANYAESVKGRFTISRDDSKRRVYLQMYTLRDQDTATYYCTSHEDFYYYSSYYFDYWGQGVMVTVSS VL: DIVLTQSPATLSVTPGESVSLSCRASQGISTSIHWYQQKSNESPRLLIKYASQSMSGIPSRFSGSGSGTDFTLRINRVESEDFSVYYCQQSYNLPLTFGSGTKLEIKR | ≥ 0.5 ratio | < 0.1 ratio | ≥ 0.5 ratio | ≥ 0.5 ratio
2 | 96-1403F (antibody, IgG2b, V domains shown) VH: EVQLVETGGGLVRPGSSLKLSCATSGFTFSDTWMSWVRQAPGKGLEWVALIKDKNSNSEANYAESIKGRFTISRDDSKSRVYLQMNTLRDQDTATYYCTRHEDFYYYSGYYFDYWGQGVMVTVSS VL: DIVLTQSPPTLSVTPGESVSLSCRASQGISTSIHWYQQRSNESPRLLIKYASQSIAGIPSRFSGSGSGTDFILSINRVESEDFSVYYCQQTYSLPLTFGPGTKLEVKR | ≥ 0.5 ratio | < 0.1 ratio | ≥ 0.5 ratio | –
3 | 64-0807A (antibody, IgG2b, V domains shown) VH: EVQVVESGGGLVQPGRSMKLSCAALGFTFRDYYMAWVRQTPTKGLEWVAAISTGGGNTYYRDSVKGRFTISRDNAKSTLYLQMDSLRSDDTATYYCARNPYGNYFDYWGQGVMVTVSS VL: QFVLSQPNSVSTNLGSTVKLSCKRSTGNIGSNYVHWYQRHEGRSPTTLIYRDDKRPNGVPDRFSGSIDRSSNSALLTINNVQTEDEADYFCQSYSGGMYLFGGGTKLTVL | ≥ 0.5 ratio | < 0.1 ratio | ≥ 0.5 ratio | < 0.1 ratio
4 | 84-1111F (antibody, IgG2b, V domains shown) VH: EVQVVESGGGLVQPGRSMKLSCAALGFTFRDYYMAWVRQTPTKGLEWVAAISTGGGNTYYRDSVKGRFTISRDNAKSTLYLKMDSLRSDDTATYYCARNPYGNYFDYWGQGVMVTVSS VL: QFVLSQPNSVSTNLGSTVKLSCKRSTGNIGSNYVHWYQRHEGRSPTTMIYRDDKRPNGVPDRFSGSIDRSSNSALLTINNVQTEDEADYFCQSYSGGMYLFGGGTTLTVL | ≥ 0.5 ratio | < 0.1 ratio | ≥ 0.5 ratio | < 0.1 ratio
5 | 65-0810G (antibody, IgG2b, V domains shown) VH: EVHLVESGGGLVQPGRSMKLSCTASGFTFNNYYMAWVRQAPTKGLEWVASISTGGGYTYYRDSVKGRFTISRDNTGNTLYLQMDSLRSEDTATYYCARCWELPYWGQGVMVTVSS VL: QFVLTQPNSVSTNLGSTVKLSCRRSSGNIGNNYVNWYRQHEGRSPTTMIYRDDTRPDGVPNRFSGSIDRSSNSALLTINNVRPEDEAYYFCQSYSGSIYIFGGGTKLTVL | ≥ 0.5 ratio | < 0.1 ratio | ≥ 0.5 ratio | < 0.1 ratio
6 | 37-0511F (antibody, IgG2b, V domains shown) VH: EVHLQQSGAALVRPRASVKLSCKVSGDSISRYYVHFVKQRPGQGLEWIGRIDPEDDTTKYSEKFKNRATLTADASSDTASLILSGLTSDDTATYFCSTLTGLDYWGQGVMVTVSS VL: DIQMTQSPPVLSTSVGDRVTLRCKPSQNVHSKLDWYQQKHGEAPKLLIYYTHNLQTGIPSRFSGSGSGTDYTLTISSLQPEDVATYYCFQYYSGWTFGGGTKLEMKR | ≥ 0.5 ratio | < 0.1 ratio | – | < 0.1 ratio
7 | 53-0707E (antibody, IgG2b, V domains shown) VH: EVQLQQSGAELVRPRTSVKLSCKVSGDSITRYYVHFVKQRPGQGLEWIGRIDPEDDTTKYSEKFKKKATLTADASSNTAYLIFSGLTSEDTATYFCSTLTGLDYWGQGVMVTVSS VL: DIQMTQSPPVLSTSVGDRVTLRCKASQNVHSKLDWYQQKHGEAPKLLIYYTHNLQTGIPSRFSGSGSGTDYTLTISSLQPEDVATYYCFQYYSGWTFGGGTKLEMKR | ≥ 0.5 ratio | < 0.1 ratio | – | < 0.1 ratio
8 | 50-0704C (antibody, IgG2b, V domains shown) VH: EVQLVGSGGGLVQPGRSMKLSCEASGFTFSNHYMAWVRQAPTKGLEWVATISTGGGNTYYRDSVKGRFTISRDNARSTLSLQMDSLRSEDTATYYCARQDYSNYMGGFAYWGQGTLVTVSS VL: QFVLTQPNSVSTNLGSTVKLSCTRSIGNIGNNYVNWYKQYEGRSPTTMIYRDDERPDGVPDRFSGSIDRSSNSALLTINSVQTEDEADYFCQSFSSGIFIFGGGTKLTVL | ≥ 0.5 ratio | < 0.1 ratio | ≥ 0.5 ratio | < 0.1 ratio
9 | 18-0211B (antibody, IgG2b, V domains shown) VH: AVQLVGSGGGLVQPGRSMKLSCEASGFTFSNHYMAWVRQAPTRGLEWVATISTGGGNTYYRDSVKGRFTISRDNTRSTLSLQMDSLRSEDTATYYCTRQDYTNYMGGFAYWGQGTLVTVSS VL: QFVLTQPNSVSTNLGSTVKLSCTRSIGNIGNNYVNWYKQYEGRSPTTLIYRDDERPDGVPDRFSGSIDRSSNSALLTINSVQTEDGADYFCQSFSSGIFIFGGGTTLTVL | ≥ 0.5 ratio | < 0.1 ratio | ≥ 0.5 ratio | < 0.1 ratio
10 | 89-1207D (antibody, IgG2b, V domains shown) VH: EVQLVGSGGGLVQPGRSMKLSCEASGFTFSNHYMAWVRQAPTKGLEWVATISTGGGNTYYRDSVKGRFTISRDNARSILSLQMDSLRSEDTATYYCARQDYSNYMGGFAYWGQGTLVTVSS VL: QFVLTQPNSVSTNLGSTVKLSCTRSIGNIGNNYVNWYKQYEGRSPTTMIYRDDERPDGVPDRFSGSIDRSSNSALLTINNVQTEDEADYFCQSFSSGMFIFGGGTKLTVL | ≥ 0.5 ratio | < 0.1 ratio | ≥ 0.5 ratio | < 0.1 ratio
